assay: soluble on expression in E. coli; label from the status in PepcDB or PDB records

| Sequence | soluble on expression in E. coli |
| --- | --- |
| GPHMPEQYRYTLPVKAGEQRLLGELTGAACATLVAEIAERHAGPVVLIAPDMQNALRLHDEISQFTDQMVMNLADWETLPYDSFSPHQDIISSRLSTLYQLPTMQRGVLIVPVNTLMQRVCPHSFLHGHALVMKKGQRLSRDALRTQLDSAGYRHVDQVMEHGEYATRGALLDLFPMGSELPYRLDFFDDEIDSLRVFDVDSQRTLEEVEAINLLPAHEFPTDKAAIELFRSQWRDTFEVKRDPEHIYQQVSKGTLPAGIEYWQPLFFSEPLPPLFSYFPANTLLVNTGDLETSAERFQADTLARFENRGVDPMRPLLPPQSLWLRVDELFSELKNWPRVQLKTEHLPTKAANANLGFQKLPDLAVQAQQKAPLDALRKFLETFDGPVVFSVESEGRREALGELLARIKIAPQRIMRLDEASDRGRYLMIGAAEHGFVDTVRNLALICESDLLGERVARRRQDSRRTINPDTLIRNLAELHIGQPVVHLEHGVGRYAGMTTLEAGGITGEYLMLTYANDAKLYVPVSSLHLISRYAGGAEENAPLHKLGGDAWSRARQKAAEKVRDVAAELLDIYAQRAAKEGFAFKHDREQYQLFCDSFPFETTPDQAQAINAVLSDMCQPLAMDRLVCGDVGFGKTEVAMRAAFLAVDNHKQVAVLVPTTLLAQQHYDNFRDRFANWPVRIEMISRFRSAKEQTQILAEVAEGKIDILIGTHKLLQSDVKFKDLGLLIVDEEHRFGVRHKERIKAMRANVDILTLTATPIPRTLNMAMSGMRDLSIIATPPARRLAVKTFVREYDSMVVREAILREILRGGQVYYLYNDVENIQKAAERLAELVPEARIAIGHGQMRERELERVMNDFHHQRFNVLVCTTIIETGIDIPTANTIIIERADHFGLAQLHQLRGRVGRSHHQAYAWLLTPHPKAMTTDAQKRLEAIASLEDLGAGFALATHDLEIRGAGELLGEEQSGSMETIGFSLYMELLENAVDALKAGREPSLEDLTSQQTEVELRMPSLLPDDFIPDVNTRLSFYKRIASAKTENELEEIKVELIDRFGLLPDPARTLLDIARLRQQAQKLGIRKLEGNEKGGVIEFAEKNHVNPAWLIGLLQKQPQHYRLDGPTRLKFIQDLSERKTRIEWVRQFMRELEENAIA | soluble |
| MGSDKIHHHHHHMTMPYVKNTKEILEKASKERYAIGAFNFNNMEFLQAILEAAEEEKAPVIVATSEGAIKYIGKGDIETGAKLAVEMVRTYAEKLSVPVALHLDHGRDFKVIMAAIKAGYSSVMIDASHLPFEENLRETKRIVEIAHAVGISVEAELGKLKGIEDNVVEKESVLVDPEEAKVFVKETEVDFLAPAIGTSHGAFKFKGEAQLDFERLKKVKEYTQIPLVLHGASMVPQDIVKLANEYGAELSGAKGVPEDMLKKAIELGINKINTDTDLRITFVAYLRKVLSEDKSQIDPRKIFKPVFEQVKEIVKERIRIFGSSGKA | not soluble |
| MTTVTKHKVLLIAGPTAVGKTALSLALAKQLNGEIISGDSMQVYRHLDIGTAKIMPEEQAGIPHHLIDIKNIDQRFTVAEFVSRTTALIIDISARGKLPIIVGGTGFYLQSLLAGYQFGPADNEPDMAYRQAWFDRAAVEGSDVAWMALKQRDPQAATAIAPANLVRVVRALEYVHTTGQLFSEQADTHGDTLDAYTLCLTAERALLYTRINQRVDQMVAAGLEQEARWLFDQGGAMLPAGKGIGYHEWFPYFNGEQTRDESIAKIKQDSRRYAKRQLTWFRNKMSVDWINLLEHPELRASIDQRLASWLSLEHHHHHH | soluble |
| MESILITGASGFIGSFIVEEALKRKFGVWAGIRPTSSKKYLKNRKIHFLELDFAHPNELRAQLSGHKGTYNKFDYIIHCAGVTKCPDKNTFDYVNYLQTKYFIDTLKALNMVPKQFIYISTLSVFGPVREKDYSPIEAGDVPMPNTAYGLSKLKAELYIQSIPGFPYVIYRPTGVYGPRELDYFLMAKSIRQHVDFSVGFRRQDLTFVYVKDIVQAIFLGIEKKVTRRAYFLTDGKVYNSRVFSDLIQKELGNPFVIHVKCPLIVLKVISLLAEFIATRSGKSSTLNSDKYKIMKQRNWQCDITPAINELGYAPEYDLEKGVRETIDWYKNEGWL | not soluble |
| MKSLTVIILYSEREQILEESIQSIWKLNLLEIIILVPNDRSNLYEIAKKHKCHIVLMGKYSTYYDGYEASVKAAKGDVLLFVDSNFLLSTNEMQRFIEPIVTNQADVVLNKIDKLIEIGKCPNMDIVWRKMLNEILSRPDLKSNSILSLPYALTKEVVENIGFNYMEDIVLSHMKIVNQGWRINDQYAINTLSKDETIEEGGYLIKKELSKNEKEKVERYLRGIAKWIEKKGRRVGFTDAGKRRDIVQKLGECKRYPSYHQGWGMHSSIYDGKQLSVIIPVQNEEETIEQVILEARKIEPLEIIVVVNGSTDQTANIAKRLGVTIIEYNERLGHNVGRAIGALEATGDILLFIDGDFSVSGSNLHHFTKAVSAGVDIALNDLNPMLHPPFYVVDVVKYMLNLAYNRPELSNGSLVAIPHAMSRSCLDAIGWESLLCPSLAQVKAILQGYRVECVHYVDVVKPNRIRLMENVSHNGHPPAVLRIIGDHVEALSYLIEQLEMDGKGDLEHHHHHH | not soluble |
| MGSDKIHHHHHHKKVIKTMMIAGQDGSHYWRGACEAMKQILENSGMFKVDFVFTPDFGGDINTFKPDFAKYNLVVVNYGGEVWPEPVQKAFENYVADGGGVVIIHSSVVPMAGWKAYNEIIGMGAWEGRNEKDGPYLYWKEGKYVYDYTPGYAGYHGLQHETILEHRAPEHPILKGLPIRWKHFKDEIYTRLRGPVRNVEILATAYERGRHEPLMWTVKWGKGRVFVDLLGHCGNDPNMIYSMECTGFQVTLLRGAEWAATGEVTQEAPRDFPLEDTCTLRPEFKAPFHATN | not soluble |
| MARTNLQFANLELFVDQLTGAMTFTRTSLLTAAQGALVTRFAEIDGRVKKNLDRVLAAFRQHRLGVHHFSSMTGYGHGDLGREVLDRVFAQVMGAEAALVRVQFVSGTHAIATALFGVLRPGDELISLAGPPYDTLEEVIGLRGQGQGSLKDFGIHYRELPLLASGEPDWGAIATCVQPQTRMVLIQRSCGYTWRPSLSLEDIGKMIQLIKSQNPDVVCFVDNCYGEFVETQEPPHVGADLIAGSLIKNPGGTIATAGGYLAGRADLIEQASYRLTAPGIGHEGGATFDQHRLLFQGLFLAPQMVGEALKCAHLLAYVFDELGYPVNPAPLSRRRDVIQAVQLGSPEKLIAFCRILQRYSPVGSYLDPVPAPMPGYADDLVMAGGTFIDGSTSELSADGPLRPPYIVFCQGGTHHTHMALILEALLEAQVFLEHHHHHH | not soluble |
| MINMEKCLLEKYNSLLEFFKNKKVIVAYSGGVDSTLISKIASDATKTLAVTVDNGFFSENVIKKAEDCAKKYNIPQKTEKIDYLNEITSKNLENRCYNCKKRIAEELKKIKNELNYDIIVDGTIYDDIFEDRPGIKAFHEENIISPLSDLKFNKNDVFEISKYLKIDIPKKDTCMATRILSAPISKENMAKSNLAEEFIKSNFHIESYLRVRYIENIAIIELTKNESEKIFDNDSIERINTELKKIGFEKVVIDLNFK | not soluble |
| HMSSGNASWFQAIKAKKLNTPPPKFEGSGVPDNENMKPSQQHGYWRRQARFKPGKGGRCPVPDAWYFYYTGTGPAADMNWGDTQDGIVWMAAKGADTKSRSNQGTRDPDKFDQYPLRFSDGGPDGNFRWDFIPL | soluble |
| MAHHHHHHMQGTGAVSASHCTFNQRSGVSKKEELGDAMKVDNVFPGGPKKDVLVSCANKSRQTAAGIFVHWCCRCESETSGDRGNVCEFFGDCECDDIYSTSNVPKCVKGDHMWRDSSTALRAVLQDVKGRDACNISTPNGKEILMKLTREELTSNIAPQDSSSKIFLFLLAALLMQDESVAQTSN | not soluble |
| MLINEYRPGAGIGWHRDKPHFEDVAGISLLAPCSFRLRRKSGDRWERRTIVVEPRSAYLMTGPSRTEWEHSIPPLAEHRYSITLRTLRSQNPLEHHHHHH | not soluble |
| LMTIKCLLLAVMVCPFFITACSDKYSEQDRVQAINNADAPFGAGLLTFQISSDTQLNSLNEISNSCALLFLQASDKNTLQDIMNNPVLIKQFFIGTGKVDGILKVDKYVAMPGQEITLHIDRNEGTKYVGVVAGYYPFPGKQHMLLLDIPVDVVEEGWWNKSLHASLLPLSKKISMGKESISMK | not soluble |
| MGKYDALVELLLEAVKEGANIHQEDCSIPVGISNRHIHLSQADVNTLFGEGYSLTRIKDLSQPGQYACKETLTICGPKGAIENVRILGPERRESQVEILRTDCFKLGLKAPVKLSGELQGTPGMTLVGPKGSVLLSQGVIVAQRHIHMSLEDAQRFGVRDGELVTIQINGLRGGTYANVAIRANNTSQLECHIDTDEANGMDLTPTSRITIIK | not soluble |
| MSLQQALINFYYQFHTKQHYFLCHDILEDAWKAENNYSKQDAVVSLILFATACYHYRRNNLKGAYKSFNKSKEIIQNAKDRDALYLNLNDYQLLIEQQIAKLNAAKPFSSVILPITPVFERIIKANYPDYDYNQETATDPFIVDHHMRRDRSEVIAAKEEAIQLRKHRRNEGHHHHHH | soluble |
| EAAYSHTPLIMVSADRPERLHGTGANQTIEQRGIFNVVDTDHVVDITDLNSISFARNVIHINVALDVPLVDVLPEVGDPVERVREVIEVDHGEVVLNLNERILVVAGDEAWEVPGLEDVPTIAEPSAPAPYHPVHPLAAQIFAHKEIKPEHIVVVGHPTLHRAVLSLLADVPVTVLTKTDTITGNPQAVGSRVKVTGELDKRWLQICEDASTLCADRVKEVLEGH | not soluble |
| MAVVAHTEEDVKLLARLMRAEAEGDGRLGMLMVGNVGVNRVIADCLDFRGIRSIRQMVFQSPGGFEAVQKGYFYQRAREVDIGLARQVLRGWRYHPATNALWFFKPPEGQECPPQWFNQWNVGRYKSHCFFAPTPSDCPRVY | not soluble |
| MVLKRKGLLIILDGLGDRPIKELNGLTPLEYANTPNMDKLAEIGILGQQDPIKPGQPAGSDTAHLSIFGYDPYETYRGRGFFEALGVGLDLSKDDLAFRVNFATLENGIITDRRAGRISTEEAHELARAIQEEVDIGVDFIFKGATGHRAVLVLKGMSRGYKVGDNDPHEAGKPPLKFSYEDEDSKKVAEILEEFVKKAQEVLEKHPINERRRKEGKPIANYLLIRGAGTYPNIPMKFTEQWKVKAAGVIAVALVKGVARAVGFDVYTPEGATGEYNTNEMAKAKKAVELLKDYDFVFLHFKPTDAAGHDNKPKLKAELIERADRMIGYILDHVDLEEVVIAITGDHSTPCEVMNHSGDPVPLLIAGGGVRTDDTKRFGEREAMKGGLGRIRGHDIVPIMMDLMNRSEKFGA | soluble |
| MSEKGFSGGCQCGAVRFHAGKLGRPSICHCRMCQKHFGNFFGALVTADQAHLAWTRGQPTLFRSSARIHRGFCNKCGTPLTYHYPGGVEIAIGAFDHPEQIEPQAQVNIHKRMPWIEQLFSKPAIEQSVDEAEITSYQHPDHDTATWPPEGP | not soluble |
| MSFNRISAAEAASLIKHGYNIGLSGFTPAGTAKAVTAELAKIAEAEHAKGNPFQVGIFTGASTGESCDGVMSRAKAIRYRAPYTTNSDFRKAVNNGEIAYNDIHLSQMAQEVRYGFMGKVNVAIIEACEVTPDGKIYLTAAGGISPTICRLADQIIVELNAAHSKSCMGLHDVYEPLDPPYRREIPIYKPSDRIGLPYIQVDPKKIVGVVETNWPDEARSFADADPLTDKIGQNVADFLAADMKRGIIPSTFLPLQSGVGNIANAVLGALGRDKTIPAFEMYTEVIQNSVIGLIREGRIKFGSACSLTVTNDCLEGIYNDMDFFRDKLVLRPSEISNNPEVVRRLGIISINTAIEVDLYGNVNSTHIGGTKMMNGIGGSGDFTRNAYISIFTCPSVAKEGKISAIVPMVSHLDHSEHSVNIIITEQGVADLRGKSPKERAQAIIENCAHPDYKQLLWDYLKLAGGRAQTPHAIQAALGMHAELAKSGDMKNTNWAEYARLEHHHHHH | not soluble |

Source: the DeepSol protein solubility set
